# Data taken from paper PMC8624084, “Persulfidation of Nitrate Reductase 2 Is Involved in L-Cysteine Desulfhydrase-Regulated Rice Drought Tolerance” (International Journal of Molecular Sciences, 2021).
# B1: OsLCD1 (Oryza sativa Japonica Group) (protein)
# chain: MASIPPDDDAAAAAAAGAAENGYGNGKGNGNGPAPRPPPAKRPRSVISAAQIRAEFEHHEAGVARVNNGSFGCCPSSLLDAQARWQRLFIAQPDDFYFHALQPGLRRSRAAVAGLVNAGDVAEVSLVDNATTAAAIVLQHAAWSFAEGRFSRGDAVLMLHYAYGAVKKSIHAYVARAGATVVEVPLPFPVASADAIIAEFRAALDVAKAGGRKVRLAVIDHITSMPSVVIPVKELVAICREEGVDKVFIDAAHSIGQVPVDVRDIGADFYTSNLHKWFFCPPAVAFLHTRKDDPIASQLHHPVVSHEYGNGLPMESGWIGTRDYSAQLVVPESIDFVNRFEGGIEGIRSRNHEKVIEMGKMLAEAWGTFLGTPPELCGSMVMVGLPGCLGVESDDDVMRMRTMLRKDFMVEVPIYYNSRRVEAQEMAKDKNGDAVTGYVRISHQVYNVTEDYEKLRDAVNKLVADGFTSSKLRPSQKQETMA
# notes: full length, 482 residues, 55 kDa, N-terminal 6xHis tag (pET-28a(+)), E. coli Rosetta (DE3), Ni-NTA purified
# Tests used:
# Format in all cases: biochemical, Oryza sativa
# [1] = substrate: S; test: OAS-TL activity assay, Lineweaver-Burk; conditions: OAS-TL (cysteine synthase) side reaction; co-substrate OAS
# [2] = substrate: CC(=O)OC[C@H](N)C(=O)O; test: OAS-TL activity assay, Lineweaver-Burk; conditions: OAS-TL (cysteine synthase) side reaction; co-substrate Na2S
# purified protein = substrate: N[C@@H](CS)C(=O)O; test: purified protein; conditions: L-cysteine desulfhydrase (CDes) reaction, method section: 100 mM Tris/HCl pH 8.5, 2.5 mM DTT, 37 °C
protein,measurement,setting,value
B1,Km,[1],8.13 ± 0.72 mM
same,Km,[2],3.76 ± 0.41 mM
same,Km,purified protein,0.15 ± 0.02 mM
